Measurements published in article PMC3683152 (Neuron, 2013).
Each block holds one molecule with its values, some of them ahead of it.

Columns and labels:
Dscam 7.13.25 isoform = test: AlphaScreen or HTRF
Ptp10D-AP = target: T1, Ptp10D-AP (Drosophila, UniProt P35992 43-1197); test: AlphaScreen or HTRF
T1 sequence (looked up): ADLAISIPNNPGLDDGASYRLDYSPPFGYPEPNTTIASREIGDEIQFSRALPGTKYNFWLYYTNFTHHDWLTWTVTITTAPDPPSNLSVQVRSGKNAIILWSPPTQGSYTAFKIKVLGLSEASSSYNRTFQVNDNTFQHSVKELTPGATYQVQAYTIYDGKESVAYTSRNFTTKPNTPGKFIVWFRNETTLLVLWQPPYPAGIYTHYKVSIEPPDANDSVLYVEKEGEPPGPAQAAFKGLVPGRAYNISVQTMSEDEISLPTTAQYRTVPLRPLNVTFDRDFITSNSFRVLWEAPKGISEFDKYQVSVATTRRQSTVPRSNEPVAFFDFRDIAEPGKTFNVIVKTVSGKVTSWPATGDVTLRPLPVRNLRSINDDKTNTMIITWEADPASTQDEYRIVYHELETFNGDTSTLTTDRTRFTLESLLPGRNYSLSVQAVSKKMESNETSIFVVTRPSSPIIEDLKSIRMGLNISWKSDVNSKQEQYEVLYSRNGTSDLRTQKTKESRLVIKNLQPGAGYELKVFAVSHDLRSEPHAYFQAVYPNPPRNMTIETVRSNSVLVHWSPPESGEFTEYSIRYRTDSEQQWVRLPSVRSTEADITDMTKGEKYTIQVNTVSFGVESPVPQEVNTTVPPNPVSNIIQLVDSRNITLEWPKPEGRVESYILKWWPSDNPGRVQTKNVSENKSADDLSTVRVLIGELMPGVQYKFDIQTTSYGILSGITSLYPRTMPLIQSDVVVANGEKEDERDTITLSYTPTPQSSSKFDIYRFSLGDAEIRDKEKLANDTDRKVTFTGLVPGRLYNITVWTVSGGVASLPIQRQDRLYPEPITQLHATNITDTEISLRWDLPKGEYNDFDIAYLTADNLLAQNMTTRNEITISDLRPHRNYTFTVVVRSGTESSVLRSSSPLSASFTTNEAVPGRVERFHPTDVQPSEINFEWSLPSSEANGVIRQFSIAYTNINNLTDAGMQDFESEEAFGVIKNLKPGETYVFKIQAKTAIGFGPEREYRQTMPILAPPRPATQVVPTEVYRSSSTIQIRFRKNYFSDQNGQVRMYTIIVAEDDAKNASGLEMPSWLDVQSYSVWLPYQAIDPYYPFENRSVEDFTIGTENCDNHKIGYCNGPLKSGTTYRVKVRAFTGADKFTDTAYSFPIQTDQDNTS

fold signal of homophilic binding over heterophilic binding of 7.13.25 to 7.8.25 (Dscam 7.13.25 isoform): 178 fold
Molecule: Dscam 7.13.25 isoform (natural protein)

signal-to-background ratio (Sas-Fc::10D-AP vs. Sas-Fc::69D-AP or Sas-Fc::blank) (Ptp10D-AP): ~6 fold
B1: Sas-Fc (Fc fusion, Drosophila, UniProt Q04164 42-1635, looked up)
chain: APAGEDAAATTMPPLDTTTDAPDAVAATTTPATTAAEQSSSISSITTEAADGSTTSTTTTTEAANKSNATETDFTTNVPVASSLPEETSVRSTSIEPITSTEPTTTPRQETEGPDQHMVFSNTEPDQSHIQHIPLRDEHAESSGADDATTEMQRQREQDQQQNELNQISNEQDDVVKDLNNFRHPATLITASNSNSEENVEIESDKQVETTTTAVPAAATSTSTEATGTPPTGTPATSTSTVPNEREEDPYHVHILSENHDRLAEHEDYQMLSTSTEESSTTSTTSTTNSTTESGIVAGIVVSQENKATAEPSTATESTSISTSTTTAATAATSTTSRARAMHMNDPEDEAATTIMPDSESVPVINIVEGQHMLQQEDQKDEEEEGVVKESESSSTTEASTTTTEPSPFVAFAGEGRSAGGGNDIELFLHHNGSTHEQLMDLSDVSMDGDQNEGSSKTESSTTSTTTTTAQPETEMPKIVEITASGDTMQRECLANNKSYKHGELMERDCDERCTCNRGDWMCEPRCRGLSYPRGSQRSMANPNCLEKMVEEDECCRVMECSEPQLEPTVVATEGAAPSTNGTGESAVTLPTTDDEATPKPRTDCHYNSGVYKFRERLEIGCEQICHCAEGGVMDCRPRCPERNHTRLDKCVYVKDPKDVCCQLELCDVTLDDHEQQPTPLQSNNNEDPEEIDPFRFQEQARDAGGAKPTCTFKGAEYDVGQQFRDGCDQLCICNEQGIHCAKLECPSNFGLDVQDPHCIRWEPVPADFKPSPPNCCPESMRCVDNGTCSYQGVQIENWSPVPANLTGCDQHCYCENGRVECRAACPPVPALPPADLPCHPALARLLPIPDDECCKHWMCAPQIPKIGGAGQDEETEATSTHSSIPANETTTTTATANKSTSIPSKVPQIKKDEEKRPPASGAFYPTLDGKPPKSIGGLGIFEKPEKPEKAHKKVQHQQQQHQQQEQQEQQQHQNDVIFDGDRTEEQEEPLPPNGGFVPFQFGQQHPHQPHLGPYGFYNPVKPVYEDYNPYEPYDINPNGTPQGKPPPVPTSQSDLFNILGAEQPGHPVHPGHGGPPRIHPGQTQKDNHNLGPQVRIEQILQHLQQTVPGGPPPPPPHQQHQSLTPQLHPQQQQISQQHPGHYVPIVHSGVPPPPPGHGIAIVDGQTVAYESYPVIPGLGVPQHHPQQHQTTPQQHLQQTILPSSSTTSGLSTQASEHSLHQNQGKLAKQQQSGANNLQPDIEVHTLEAIDPRSIRIVFTVPQVYVNLHGRVELRYSNGPSNDTSTWEQQIFAPPEDLIATSQMEFDLPSLEPNSLYKVKITLILRDLNSQPTSSIYTVKTPPERTITPPPPFPDYRPDFQDIFKNVEDPELTVSETNASWLQLTWKKLGDDQMEYVDGVQLRYKELTGMIYSSTPLIHRTLTSYTIQNLQPDTGYEIGLYYIPLAGHGAELRAGHMIKVRTAQKVDVYGFDVTVNVTKVKTQSVEISWNGVPYPEDKFVHIYRAIYQSDAGKEDSSVFKVAKRDSTTGTLIMDLKPGTKYRLWLEMYLTNGNTKKSNVVNFITKPGGPATPGKTGKLLTAGTDQPVGDYYGPL
